# Assay results reported in the RNAGym collection of RNA variant scans (doi:10.1093/molbev/msab373).
# B1: Azoarcus group I ribozyme (parent)
# chain: GUGCCUUGCGCCGGGAAACCACGCAAGGGAUGGUGUCAAAUUCGGCGAAACCUAAGCGCCCGCCCGGGCGUAUGGCAACGCCGAGCCAAGCUUCGGCGCCUGCGCCGAUGAAGGUGUAGAGACUAGACGGCACCCACCUAAGGCAAACGCUAUGGUGAAGGCAUAGUCCAGGGAGUGGCGAAAGUCACACAAACCGG
# Variants of: B1
# Assay: reverse-splicing fitness (ratio to wild type); higher = more active; in vitro selection; Mg2+ level not given
# Outline: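 An in vitro group I ribozyme library with randomized positions was T7-transcribed and gel-purified. In triplicate, 10 pmol RNA in EPPS pH 7.5 was reacted with 50 pmoles of a 30-nt RNA substrate for 1 h at 37 °C across several added MgCl2 levels (1–48 mM), then stopped with EDTA. Products were reverse transcribed from a substrate-complementary primer, PCR-amplified and sequenced (HiSeq 4000). Fitness is a variant's read proportion after selection over that before, normalised to wild type.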
row,Variant,reverse-splicing fitness
1,C82U A111G A120U C150A C169G,0.00358
2,C82U A111G A120U C150A C169G U176A,0.0073
3,C82U A111G A120U C150A C169G U176C,0.00439
4,C82U A111G A120U C150A C169G U176G,0.00213
5,C82U A111G A120U C150A C169U,0.00325
6,C82U A111G A120U C150A C169U U176A,0.00577
7,C82U A111G A120U C150A C169U U176C,0.00372
8,C82U A111G A120U C150A C169U U176G,0.00202
9,C82U A111G A120U C150A U176A,0.00587
10,C82U A111G A120U C150A U176C,0.00592
11,C82U A111G A120U C150A U176G,0.00238
12,C82U A111G A120U C150G,0.00763
13,C82U A111G A120U C150G C169A,0.00636
14,C82U A111G A120U C150G C169A U176A,0.00509
15,C82U A111G A120U C150G C169A U176C,0.00364
16,C82U A111G A120U C150G C169A U176G,0.00235
17,C82U A111G A120U C150G C169G,0.00572
18,C82U A111G A120U C150G C169G U176A,0.00513
19,C82U A111G A120U C150G C169G U176C,0.00318
20,C82U A111G A120U C150G C169G U176G,0.0022
21,C82U A111G A120U C150G C169U,0.004

row,Variant,reverse-splicing fitness
1,C82U A111G A120U C150G C169U U176A,0.00387
2,C82U A111G A120U C150G C169U U176C,0.00396
3,C82U A111G A120U C150G C169U U176G,0.00234
4,C82U A111G A120U C150G U176A,0.00422
5,C82U A111G A120U C150G U176C,0.0053
6,C82U A111G A120U C150G U176G,0.00216
7,C82U A111G A120U C150U,0.0236
8,C82U A111G A120U C150U C169A,0.00334
9,C82U A111G A120U C150U C169A U176A,0.00365
10,C82U A111G A120U C150U C169A U176C,0.00318
11,C82U A111G A120U C150U C169A U176G,0.00203
12,C82U A111G A120U C150U C169G,0.00459
13,C82U A111G A120U C150U C169G U176A,0.00733
14,C82U A111G A120U C150U C169G U176C,0.00322
15,C82U A111G A120U C150U C169G U176G,0.00216
16,C82U A111G A120U C150U C169U,0.00388
17,C82U A111G A120U C150U C169U U176A,0.00404
18,C82U A111G A120U C150U C169U U176C,0.00375
19,C82U A111G A120U C150U C169U U176G,0.0019
20,C82U A111G A120U C150U U176A,0.00678
21,C82U A111G A120U C150U U176C,0.0105

row,Variant,reverse-splicing fitness
1,C82U A111G A120U C150U U176G,0.00374
2,C82U A111G A120U C169A,0.00275
3,C82U A111G A120U C169A U176A,0.0024
4,C82U A111G A120U C169A U176C,0.00211
5,C82U A111G A120U C169A U176G,0.00189
6,C82U A111G A120U C169G,0.00416
7,C82U A111G A120U C169G U176A,0.0028
8,C82U A111G A120U C169G U176C,0.00265
9,C82U A111G A120U C169G U176G,0.00183
10,C82U A111G A120U C169U,0.00493
11,C82U A111G A120U C169U U176A,0.00282
12,C82U A111G A120U C169U U176C,0.00442
13,C82U A111G A120U C169U U176G,0.0017
14,C82U A111G A120U U176A,0.011
15,C82U A111G A120U U176C,0.0192
16,C82U A111G A120U U176G,0.00489
17,C82U A111G A145C,0.406
18,C82U A111G A145C C150A,0.019
19,C82U A111G A145C C150A C169A,0.0083
20,C82U A111G A145C C150A C169A U176A,0.0104
21,C82U A111G A145C C150A C169A U176C,0.00627

row,Variant,reverse-splicing fitness
1,C82U A111G A145C C150A C169A U176G,0.00539
2,C82U A111G A145C C150A C169G,0.0066
3,C82U A111G A145C C150A C169G U176A,0.0215
4,C82U A111G A145C C150A C169G U176C,0.0112
5,C82U A111G A145C C150A C169G U176G,0.0054
6,C82U A111G A145C C150A C169U,0.00807
7,C82U A111G A145C C150A C169U U176A,0.0133
8,C82U A111G A145C C150A C169U U176C,0.00672
9,C82U A111G A145C C150A C169U U176G,0.00504
10,C82U A111G A145C C150A U176A,0.0156
11,C82U A111G A145C C150A U176C,0.0142
12,C82U A111G A145C C150A U176G,0.00788
13,C82U A111G A145C C150G,0.0393
14,C82U A111G A145C C150G C169A,0.00744
15,C82U A111G A145C C150G C169A U176A,0.00801
16,C82U A111G A145C C150G C169A U176C,0.00614
17,C82U A111G A145C C150G C169A U176G,0.00511
18,C82U A111G A145C C150G C169G,0.00679
19,C82U A111G A145C C150G C169G U176A,0.00777
20,C82U A111G A145C C150G C169G U176C,0.00634
21,C82U A111G A145C C150G C169G U176G,0.0047
